Test results reported in patent US7985587B2, “Methods of culturing dermal papilla cells” (The General Hospital Corporation, priority 2000, dated 2011).

B1: Wnt 4: Wnt protein supplied by chick embryo fibroblast feeder cells infected with RCASBP(A) retroviral vector encoding Wnt4 (protein, UniProt P49337 23-351, looked up)
Protein Wnt-4: SNWLYLAKLSSVGSISEEETCEKLKGLIQRQVQMCKRNLEVMDSVRRGAQLAIEECQYQFRNRRWNCSTLDTLPVFGKVVTQGTREAAFVYAISSAGVAFAVTRACSSGELDKCGCDRTVQGGSPQGFQWSGCSDNIAYGVAFSQSFVDVRERSKGASSNRALMNLHNNEAGRKAILNNMRVECKCHGVSGSCEFKTCWKAMPPFRKVGNVLKEKFDGATEVEQSEIGSTKVLVPKNSQFKPHTDEDLVYLDSSPDFCDHDLKNGVLGTSGRQCNKTSKAIDGCELMCCGRGFHTDEVEVVERCSCKFHWCCSVKCKPCHRVVEIHTCR
B2: Wnt3a: Wnt protein supplied by chick embryo fibroblast feeder cells infected with RCASBP(A) retroviral vector encoding Wnt3a (protein, UniProt Q2LMP1 19-352, looked up)
Protein Wnt-3a: SYPIWWSLAIGHQYSSLGTQPILCGSIPGLVPKQLRFCRNYVEIMPSVAEGVKIGIQECQHQFRGRRWNCTTVNDSLAIFGPVLDKATRESAFVHAIASAGVAFAVTRSCAEGSATICGCDTRHKGSPGEGWKWGGCSEDVEFGSMVSREFADARENRPDARSAMNRHNNEAGRTSIIELMHLKCKCHGLSGSCEVKTCWWSQPDFRVIGDYLKDKYDSASEMVVEKHRESRGWVETLRPKYNFFKAPTEKDLVYYENSPNFCEPNPETGSFGTRDRICNVTSHGIDGCDLLCCGRGHNTRTEKRKEKCHCIFHWCCYVRCQECIRVYDVHTCK

Columns and labels:
[1] = system: versican GFP transgenic mouse pelage DP cells; assay: Flow cytometric analysis of GFP expression in DP cells co-cultured with feeder cells; assay type: cell-based; conditions: for GFP expression (GFP fluorescence) of DP cells: freshly isolated DP cells co-cultured with feeder cells expressing the protein, FACS analysis
Text: (§1) Fresh mouse pelage DP cells were obtained from versican GFP transgenic newborn skin by high-speed cell sorting (MoFLO) as described previously in Kishimoto et al., supra. Chick embryo fibroblasts (CEFs) were infected with RCASBP(A) retroviral vectors encoding chick Shh, as described in Riddle et al. (1993) Cell 75:1401-1416, Wnt3a, as described in Kengaku et al. (1998) Science 280:1274-1277, Wnt4, Wnt5a (Noramly and Morgan, in prep), or Wnt7a, as described in Riddle et al. (1995) Cell 83:631-640, or vector alone as described, as described in Morgan et al. in Methods in Cell Biology (ed. Bonner-Fraser) pp. 185-218 (Academic Press, San Diego, 1996). GFP positive mouse DP cells were added onto 30-50% confluent feeder cells to achieve a ratio of 1:3 (mouse:chick). For the flow cytometric analysis, cells were co-cultured in 24 well dishes for 48-96 hrs. For the grafting experiment co-cultured cells were passaged 2-3 times in 10 cm dishes to generate the 2×10^6 cells required for each graft.
Cells were trypsinized and resuspended in 0.5 ml PBS with 1% BSA. Flow cytometric analysis was performed by FACScan (Becton Dickinson). DP cells were labeled with mouse MHC class II monoclonal antibody and incubated with secondary IgG conjugated to PE. The PE negative avian cells fell below the lower gate in FIG. 3 and were excluded from the analysis of GFP expression.

[2] = system: versican GFP transgenic mouse pelage DP cells; assay: RT-PCR analysis of gene expression in DP cells co-cultured with feeder cells; assay type: cell-based; conditions: freshly isolated DP cells co-cultured with feeder layers
Protocol: Total RNA was isolated and RT PCR performed as described in Kishimoto et al. (1999) Proc. Natl Acad. Sci. USA 96:7336-7341, using an annealing temperature of 58° C. The primers employed are listed below. With the exception of Wnts 4, 5 and 7, the primers were designed to distinguish between mouse and chicken orthologues and the lack of cross reaction to chick sequences was confirmed on cDNA from feeder cells alone.
as §1, with “For the grafting experiment co-cultured cells were passaged 2-3 times in 10 cm dishes to generate the 2×10^6 cells required for each graft.” left out

[3] = system: hair inductive activity of DP cells; assay: Skin reconstitution assay: co-cultured DP cells plus keratinocytes grafted on nude mouse hosts; assay type: in vivo
Text: as §1
The reconstitution assay was performed as described in Kishimoto et al., supra. Primary keratinocytes were prepared from 2 newborn pups per graft and combined with 2×10^6 DP cells in the graft chamber. Hair growth was monitored two weeks after grafting and weekly thereafter.

[4] = DP cells maintained in culture until GFP expression and hair inductive activity were lost

Molecule	GFP expression (GFP fluorescence) of DP cells [1]	GFP RNA levels in DP cells [2]	reactivation of hair inductive activity in DP cells that lost it in culture [3, 4]	hair growth / hair inductive activity of co-cultured DP cells ([3]; reconstituted skin on nude mouse host, compared to cells co-cultured with control feeders or Shh expression cells)	hair in graft of treated DP cells ([3]; three weeks after grafting to nude mouse, DP cells co-cultured with feeder cells, combined with keratinocytes)	reactivation of GFP expression in DP cells that lost it in culture [1, 4]
B1	some maintenance of GFP expression but were less potent than either Wnt3a or 7a					
B2	maintenance of GFP fluorescence in the majority of the DP cells	maintained	cannot reactivate	dramatic increase in hair growth	formed a dense patch of hair in the graft	cannot reactivate
